Experimental data from patent publication US20200299347A1.

Target: FGFR3
Assay: cell-based or functional assay

FGF18 EC50 (nM), BaF3/FGFR3 cell proliferation (ATP) assay: 0.02 nM
Substance: sprifermin (rhFGF18) (from UniProt O76093 28-196) (ligand)
